Source: US20260263607A1, “INHIBITION OF MYC USING HIGH-DENSITY BRUSH POLYMERS” (Northwestern University, priority 2022, published 2026)
Each block holds one molecule with its values, some of them ahead of it. Ends that are not written are not given here. norbornene = norbornene on aminohexanoic acid N-terminal cap, polymerised by ROMP; Ahx = NCCCCCC(=O)O

Key:
[1] = target: T1, Myc protein from PC-3 cell lysates (Homo sapiens, UniProt P01106); assay: In vitro pull down assay with biotin-terminated PLPs; format: binding; settings: PC-3 cell lysate, 10 μM or 2 μM biotinylated PLPs, FIG. 5B
T1 construct: Degradation of endogenous Myc protein in PC-3 cells was explored; endogenous in cells; host or cells: PC-3
Method: In vitro Pull Down Assay: To confirm PLP direct binding to endogenous Myc protein in cell lysate complex, biotin conjugated PLP was synthesized. Collected PC-3 cell pellet (2 million cells per pulldown condition) was suspended in 300 μL pulldown lysis buffer (pH 7.4 50 mM Tris-HCl, 150 mM NaCl, 1 mM EDTA, 0.1% IGEPAL nonionic detergent+1× Halt protease/phosphatase inhibitor cocktail) and lysed by repeat (3×) freeze-thawing in liquid nitrogen. The lysed cell pellets were spun at 4° C. for 15 minutes at 15,000 rpm on a Eppendorf 5424R centrifuge. The collected supernatants were pre-cleared with Pierce streptavidin magnetic beads (Thermo, 88817) for 1 hr at 4° C. For Examples 7 and 10, around 300 μg was applied to each sample and incubated with 5 μM of HYDRAC, scrambled HYDRAC, 10 μM of H1 homopolymer, scrambled H1 homopolymer or D-Biotin on a rotator over night at 4° C. […]
(§1) It has been previously reported (Blum et al., Kammeyer et al., and Berger et al., Mussel Adhesive-Inspired Proteomimetic Polymer, Journal of Am. Chem. Soc., 144, 4383-4392 (2022)) that peptide brush polymers with a DP around 15 synthesized in a similar manner maintain payload bioactivity and readily enter cells. […]
(§2) This example provides data supporting toxicity of cancer cells in vitro after treatment with Myc-targeted PLPs. […] Cells were treated with PLP 5.2 for 3 days and cellular viability was recorded. […]

[2] = tested on: PC-12 Pheochromocytoma (which lack the Myc dimerization partner Max) cell lines; assay: PC-12 cell viability; format: cell-based; settings: treated for 3 days, FIG. 5A
Method: (§3) Cell Culture: PC-3, PC-12, A549 cells were obtained from ATCC; Mouse MycCaP cells were the kind gift of Charles Sawyers (Memorial Sloan-Kettering Cancer Centre). All cells were authenticated and tested as mycoplasma-free. PC-3 and A549 cells were grown in F12K (Gibco) medium; MycCaP cells in DMEM medium (Gibco), all supplemented with 10% heat-inactivated fetal bovine serum (FBS, Gibco). PC-12 cells were grown in F-12K medium (ATCC) with 5% heat-inactivated FBS and 10% heat-inactivated horse serum (Thermo). All cells were cultured in 1% Penicillin-Streptomycin (10,000U/ml, Life Technologies) and 5% CO2 in a humidified incubator at 37° C.
(§4) Cell Proliferation Assays: Cell viability was estimated using the CellTiter-Glo® Luminescent Cell Viability Assay (Promega). […] After 3 to 5 days following the treatment, CellTiter-Glo reagent was added mixed 1:1 vol/vol with fresh media, plates incubated for 10 minutes on a shaking rotator followed by 10 minutes without shaking at room temperature (protected from light using aluminum foil) and luminescence was measured using plate reader (Perkin Elmer Victor 3V).
as §2

MYC T58A = target: T2, MYC T58A (Homo sapiens, UniProt P01106, T73A); assay: Western blot of MYC T58A in PC-3 MYC^T58A cells; format: cell-based; settings: 6 h; 2.5 and 5 μM HYDRAC, FIG. 31C
T2 construct: expressed in transfected cells
Method: Western BlotAnalysis: Cells were lysed in RIPA (Sigma) lysis buffer containing 1×Halt™ Protease and Phosphatase Inhibitor Cocktail (ThermoFisher). Protein concentration was measured by Bio-Rad Bradford reagent. Protein samples were prepared by addition of 4×Laemmli Sample buffer (Bio-Rad) and 2-mercaptoethanol (Bio-Rad) and resolved on 4-12% SDS-PAGE (Sodium dodecyl sulfate-polyacrylamide) gels, which were subsequently transferred to PVDF membranes (Bio-Rad) using Trans-Blot Turbo transfer buffer (Bio-Rad) and a Trans-Blot Turbo Transfer System (Bio-Rad). Membranes were blocked for 1 h at room temperature with 5% blotting-grade blocker non-fat dry milk (Bio-Rad), followed by overnight 4° C. incubation with the appropriate primary antibody and 1 h room temperature incubation with an anti-rabbit or anti-mouse IgG (H+L)-HRP conjugate (Bio-Rad) secondary antibody. Blots were imaged using Supersignal West Femto Maximum Sensitivity Substrate detection system (Thermo) and the ChemiDoc Imaging System (Bio-Rad). The following primary antibodies were used: c-Myc (Y69) (Abcam #ab32072), Streptavidin-HRP (PerkinElmer NEL750), GAPDH (Cell Signaling #3683) and Actin (Cell Signaling #5125). Quantification analyses were performed by Biorad ChemiDoc Imager and Bio-Rad Image Lab software. […]

[3] = tested on: PC-3 prostate cancer cells; assay: PC-3 cell viability / toxicity (CellTiter-Glo); format: cell-based; settings: PC-3, 72 hours treatment, FIG. 2D; read-out: IC50 (concentration of peptide which exhibited 50% cell viability for PC-3)
Method: as §3, §4
This example evaluates the toxicity of Myc-targeting PLPs in the PC-3 cancer cell line. • Example 3.1—Generation of Block and Statistical Copolymers. […] Cellular viability was assessed via the Cell Prolferation Assays protocol provided above. • Example 3.2—Results. […]

full length Max = full length Max (Homo sapiens, UniProt P61244); assay: Circular dichroism, binding to Max; settings: 1 μM PLP plus 5 μM Max
Method: (§5) Circular Dichroism (CD) Spectroscopy: CD spectra were obtained on a JASCO J-815 spectrometer equipped with a Peltier sample holder for temperature control. Polymer samples were dissolved in buffered solvent to concentrations of approximately 1 μM, and placed into a 1 cm quartz cuvette (Hellma). Protein samples were measured at 5 μM. All samples were equilibrated at room temperature for at least thirty minutes prior to measurement, with mixtures (i.e. protein and polymer combinations) being generally equilibrated for 12 hours prior to measurement. Spectra were obtained using a scan speed of 10 nm/min, using a 1 nm bandwidth, 4 sec response time, and with three accumulations. Background spectra of solvent were obtained prior to measurement of the sample solutions, and subtracted from the sample spectra using JASCO Spectra Analysis. For melting experiments, the temperature was varied between 2° and 91° C. with steps of 1° C./min, while measuring the ellipticity at 222 nm with a 2 nm bandwidth.
as §1, with “cells. As such, initial HYDRAC designs revolved around this molecular size range.” for “cells.”

b-HLH-LZ domain of Myc = target: T3, b-HLH-LZ domain of Myc (Homo sapiens, UniProt P01106); assay: Circular dichroism, dimerization with Myc b-HLH-LZ; format: binding; settings: 1 μM PLP plus 5 μM bHlH
T3 construct: dimerize with either the b-HLH-LZ domain of Myc or full length Max
Method: as §5
as §1, with “cells. As such, initial HYDRAC designs revolved around this molecular size range.” for “cells.”

[4] = target: endogenous Myc protein of PC-3 cells (in PC-3 cell lysate or in the cells) (UniProt P01106 1-454, limits assumed); assay: cell-based or functional assay
Sequence of endogenous Myc protein of PC-3 cells (in PC-3 cell lysate or in the cells) (P01106 whole entry): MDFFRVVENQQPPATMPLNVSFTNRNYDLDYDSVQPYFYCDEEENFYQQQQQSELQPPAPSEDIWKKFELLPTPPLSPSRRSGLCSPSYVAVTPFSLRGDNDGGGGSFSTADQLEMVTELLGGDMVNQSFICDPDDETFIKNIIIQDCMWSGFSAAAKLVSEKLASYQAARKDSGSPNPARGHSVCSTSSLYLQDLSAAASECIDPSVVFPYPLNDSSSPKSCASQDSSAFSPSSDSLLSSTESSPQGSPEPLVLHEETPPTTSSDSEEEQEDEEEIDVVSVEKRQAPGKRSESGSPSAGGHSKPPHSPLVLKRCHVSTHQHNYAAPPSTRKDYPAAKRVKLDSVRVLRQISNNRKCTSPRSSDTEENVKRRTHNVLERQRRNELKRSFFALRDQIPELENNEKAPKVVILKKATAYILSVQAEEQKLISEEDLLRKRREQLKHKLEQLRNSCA

T1 sequence (P01106 whole entry): as above
T2 sequence (P01106 16-454 T73A): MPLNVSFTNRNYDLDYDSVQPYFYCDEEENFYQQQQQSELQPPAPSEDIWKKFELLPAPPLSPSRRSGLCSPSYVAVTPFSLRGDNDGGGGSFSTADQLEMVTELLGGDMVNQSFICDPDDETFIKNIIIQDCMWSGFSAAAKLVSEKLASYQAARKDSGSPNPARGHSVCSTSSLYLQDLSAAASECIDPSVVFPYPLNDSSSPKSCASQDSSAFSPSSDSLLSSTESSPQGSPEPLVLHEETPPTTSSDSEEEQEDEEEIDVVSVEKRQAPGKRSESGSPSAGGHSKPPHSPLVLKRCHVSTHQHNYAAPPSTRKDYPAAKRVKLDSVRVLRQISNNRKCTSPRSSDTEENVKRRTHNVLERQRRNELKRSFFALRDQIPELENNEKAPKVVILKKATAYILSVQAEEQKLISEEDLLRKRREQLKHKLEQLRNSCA
T3 sequence (P01106 368-454 limits assumed): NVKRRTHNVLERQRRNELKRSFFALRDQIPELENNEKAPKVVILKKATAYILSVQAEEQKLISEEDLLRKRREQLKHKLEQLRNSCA
Sequence of full length Max (P61244 whole entry): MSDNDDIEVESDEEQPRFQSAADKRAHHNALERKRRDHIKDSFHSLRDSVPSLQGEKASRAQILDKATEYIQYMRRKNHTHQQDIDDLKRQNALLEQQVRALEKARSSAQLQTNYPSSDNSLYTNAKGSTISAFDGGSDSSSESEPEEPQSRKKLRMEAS

IC50 [2]: 10.2 µM
Molecule: H17-stat-RRRG6 (peptide 1 NELKRAFAALRDQI) [PLP 5.2]
Myc pull down [1]: capable of direct endogenous binding to Myc protein

MYC^T58A protein level (MYC T58A): only minor changes in mutant MYC levels
Molecule: Cn1nc(C(F)(F)F)cc1-c1ccc(OCc2ccc(Cl)cc2)c(-c2ccc(Cl)c(C(F)(F)F)c2)c1O [MYCi975]

Further lines, the molecule ahead of its results:

Molecule: NELKRAFAALRDQI-NH2 [unpolymerized H1 peptide, NELKRAFAALRDQI, reference compound]
IC50 [3]: 700 µM

Molecule: H16-stat-RRRG7 (peptide 1 NELKRAFAALRDQI) [H1-R PLP]
Max binding (CD) (full length Max): limited Max/HYDRAC binding
heterodimerization with Myc b-HLH-LZ (CD) (b-HLH-LZ domain of Myc): selective Myc/HYDRAC heterodimerization in the low micromolar range

B1: PLP 5.2, H17-stat-RRRG6 (Example 9.4, FIG. 5A) (other)
peptide 1: {norbornene-Ahx}-NELKRAFAALRDQI-NH2
peptide 2: {norbornene-Ahx}-RRRG-NH2
modifications: also: polymerised through N-terminal norbornene by ROMP into polymer backbone, statistical copolymer of both peptides
IC50 of PC-3 cell viability after 3 days of treatment (CTGlo) [4]: 0.49 µM
